Experimental data from patent publication US20080138349A1.

biological target: FcγRIIIA (UniProt P08637); test: ELISA
Sequence (P08637 17-208 limits assumed): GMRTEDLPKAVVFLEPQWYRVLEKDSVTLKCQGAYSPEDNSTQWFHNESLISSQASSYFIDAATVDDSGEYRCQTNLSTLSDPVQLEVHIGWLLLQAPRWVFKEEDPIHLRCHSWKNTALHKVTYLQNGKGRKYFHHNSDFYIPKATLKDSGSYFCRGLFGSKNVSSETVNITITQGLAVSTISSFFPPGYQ

Substance	ELISA binding increase vs wt [x]	ELISA binding decrease vs wt [x]	ELISA binding vs wt [x]	ELISA IIIA binding vs wt [X]
ch4-4-20 S407I (from UniProt P01857 1-330) (antibody)	0.5			
ch4-4-20 P247L (from UniProt P01857 1-330) (antibody)	0.5			
ch4-4-20 S298N, S407R (from UniProt P01857 1-330) (antibody)	0.5			
ch4-4-20 T394M, V397M (from UniProt P01857 1-330) (antibody)	0.5			
ch4-4-20 E216D, E345K, S375I (from UniProt P01857 1-330) (antibody)	0.5			
ch4-4-20 K334I (from UniProt P01857 1-330) (antibody)	1			
ch4-4-20 K222N, T335N, K370E, A378V, T394M (from UniProt P01857 1-330) (antibody)	1			
ch4-4-20 A378V, N390I, V422I (from UniProt P01857 1-330) (antibody)	0.5			
ch4-4-20 N315I, V379M, T394M (from UniProt P01857 1-330) (antibody)	1			1
ch4-4-20 P396H (from UniProt P01857 1-330) (antibody)	1			
ch4-4-20 K326E, G385E (from UniProt P01857 1-330) (antibody)	0.5			
ch4-4-20 K334N (from UniProt P01857 1-330) (antibody)	0.5			
ch4-4-20 K288N, K326N (from UniProt P01857 1-330) (antibody)	1			
ch4-4-20 Q347H, A339V (from UniProt P01857 1-330) (antibody)	0.5			
ch4-4-20 K222N (from UniProt P01857 1-330) (antibody)	1			
ch4-4-20 V282M (from UniProt P01857 1-330) (antibody)	1			
ch4-4-20 V279L, P395S (from UniProt P01857 1-330) (antibody)	1			
ch4-4-20 K246T, Y319F (from UniProt P01857 1-330) (antibody)	1			
ch4-4-20 P343S, P353L, S375I, S383N (from UniProt P01857 1-330) (antibody)	0.5			
ch4-4-20 K246T, P396H (from UniProt P01857 1-330) (antibody)	1			
ch4-4-20 K370N, S440N (from UniProt P01857 1-330) (antibody)	1			
ch4-4-20 D401V (from UniProt P01857 1-330) (antibody)	0.5			
ch4-4-20 P247L, I377F (from UniProt P01857 1-330) (antibody)	1			
ch4-4-20 T335N, K370E, A378V, T394M, S424L (from UniProt P01857 1-330) (antibody)	0.5			
ch4-4-20 I377N (from UniProt P01857 1-330) (antibody)		0.5		

Further lines, results first:

ELISA binding increase vs wt [x]	ELISA binding decrease vs wt [x]	ELISA binding vs wt [x]	ELISA IIIA binding vs wt [X]	Substance
1				ch4-4-20 S219Y (from UniProt P01857 1-330) (antibody)
	0.5			ch4-4-20 P291S, K288E, H268L, A141V (from UniProt P01857 1-330) (antibody)
	0.5			ch4-4-20 D399E, M428L (from UniProt P01857 1-330) (antibody)
0.5				ch4-4-20 S408I, V215I, V125L (from UniProt P01857 1-330) (antibody)
0.5				ch4-4-20 H310Y, T289A, G337E (from UniProt P01857 1-330) (antibody)
3				ch4-4-20 P247L, I253N, K334N (from UniProt P01857 1-330) (antibody)
		1		ch4-4-20 V284A, F372L (from UniProt P01857 1-330) (antibody)
3				ch4-4-20 F275Y (from UniProt P01857 1-330) (antibody)
0.5				ch4-4-20 V282E, V369I, L406F (from UniProt P01857 1-330) (antibody)
1				ch4-4-20 K246R, S298N, I377F (from UniProt P01857 1-330) (antibody)
0.5				ch4-4-20 S383N, N384K, T256N, V262L, K218E, R214I, K205E, F149Y, K133M (from UniProt P01857 1-330) (antibody)
		1		ch4-4-20 P247L, A431V, S442F (from UniProt P01857 1-330) (antibody)
0.5				ch4-4-20 D312E, K327N, I378S (from UniProt P01857 1-330) (antibody)
3				ch4-4-20 D280E, S354F, A431D, L441I (from UniProt P01857 1-330) (antibody)
1				ch4-4-20 K320E, K326E (from UniProt P01857 1-330) (antibody)
	0.5			ch4-4-20 R301C, M252L, S192T (from UniProt P01857 1-330) (antibody)
0.5				ch4-4-20 H224L (from UniProt P01857 1-330) (antibody)
1				ch4-4-20 K334E, T359N, T366S, Q386R (from UniProt P01857 1-330) (antibody)
0.5				ch4-4-20 F275I, K334N, V348M (from UniProt P01857 1-330) (antibody)
	0.5			ch4-4-20 R301H, K340E, D399E (from UniProt P01857 1-330) (antibody)
0.5				ch4-4-20 S415I, L251F (from UniProt P01857 1-330) (antibody)
1				ch4-4-20 P227S, K290E (from UniProt P01857 1-330) (antibody)
1				ch4-4-20 G385E, P247H (from UniProt P01857 1-330) (antibody)
	0.5			ch4-4-20 P291S, P353Q (from UniProt P01857 1-330) (antibody)
2.9				ch4-4-20 K326I, P396L (from UniProt P01857 1-330) (antibody)
1				ch4-4-20 F243L, R255L, E318K (from UniProt P01857 1-330) (antibody)
1				ch4-4-20 S400P (from UniProt P01857 1-330) (antibody)

biological target: FcγRIIB (CD32B), soluble dimeric Fc fusion (human) (UniProt P31994); test: Biacore SPR
Sequence (P31994 43-217): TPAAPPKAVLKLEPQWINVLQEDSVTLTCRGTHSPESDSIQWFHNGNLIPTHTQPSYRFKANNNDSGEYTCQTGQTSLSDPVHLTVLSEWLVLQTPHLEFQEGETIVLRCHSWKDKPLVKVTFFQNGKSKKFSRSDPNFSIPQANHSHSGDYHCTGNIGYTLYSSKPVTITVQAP

Substance	Koff WT/Koff mutant
Immunoglobulin with variant Fc region P247L N421K D270E (antibody)	0.58
Immunoglobulin with variant Fc region P247L N421K F243L (antibody)	0.17
Immunoglobulin with variant Fc region G316D R416G D270E F243L (antibody)	0.2
Immunoglobulin with variant Fc region Q419H P396L (antibody)	1.33
Immunoglobulin with variant Fc region G316D R416G D270E (antibody)	0.78
Immunoglobulin with variant Fc region Q419H P396L D270E (antibody)	0.68

Other lines, results leading:

Koff WT/Koff mutant	Substance
0.26	Immunoglobulin with variant Fc region Q419H P396L D270E F243L (antibody)
0.79	Immunoglobulin with variant Fc region K392T P396L D270E (antibody)
0.25	Immunoglobulin with variant Fc region R292G (antibody)
1.38	Immunoglobulin with variant Fc region R292P V305I F243L P396L Y300L (antibody)

biological target: FcγRIIIA 158F (CD16A F158), soluble monomer (human) (UniProt P08637); test: Biacore SPR
Sequence (P08637 17-208): as the sequence (P08637 17-208 limits assumed) above

Substance	Koff WT/Koff mutant
Immunoglobulin with variant Fc region P247L N421K D270E (antibody)	2.46
Immunoglobulin with variant Fc region P247L N421K F243L (antibody)	1.71
Immunoglobulin with variant Fc region G316D R416G D270E F243L (antibody)	1.34
Immunoglobulin with variant Fc region Q419H P396L (antibody)	1.19
Immunoglobulin with variant Fc region G316D R416G D270E (antibody)	2.49

Second part, the substance after the results:

Koff WT/Koff mutant	Substance
1.15	Immunoglobulin with variant Fc region Q419H P396L D270E F243L (antibody)
2.28	Immunoglobulin with variant Fc region K392T P396L D270E (antibody)
1.73	Immunoglobulin with variant Fc region P247L N421K (antibody)
8.25	Immunoglobulin with variant Fc region R292P V305I F243L P396L Y300L (antibody)

biological target: FcγRIIIA 158V (CD16A V158), soluble monomer (human) (UniProt P08637); test: Biacore SPR
Sequence (P08637 17-208 F176V): as the sequence (P08637 17-208 limits assumed) above, with F160V counted along it

Substance	Koff WT/Koff mutant
Immunoglobulin with variant Fc region P247L N421K D270E (antibody)	1.89
Immunoglobulin with variant Fc region P247L N421K F243L (antibody)	1.89
Immunoglobulin with variant Fc region G316D R416G D270E F243L (antibody)	1.5
Immunoglobulin with variant Fc region Q419H P396L (antibody)	1.19
Immunoglobulin with variant Fc region G316D R416G D270E (antibody)	2.18
Immunoglobulin with variant Fc region Q419H P396L D270E (antibody)	1.64

Further lines, results first:

Koff WT/Koff mutant	Substance
1.46	Immunoglobulin with variant Fc region Q419H P396L D270E F243L (antibody)
1.81	Immunoglobulin with variant Fc region K392T P396L D270E (antibody)
1.29	Immunoglobulin with variant Fc region P247L N421K (antibody)
1.54	Immunoglobulin with variant Fc region R292G (antibody)
10.1	Immunoglobulin with variant Fc region R292P V305I F243L P396L Y300L (antibody)

biological target: FcγRIIIA 158F (CD16A F158), soluble monomer (human) (UniProt P08637); test: Biacore SPR; value on CD16A over value on CD32B

Substance	Ratio of Affinities CD16A F158/CD32B
Immunoglobulin with variant Fc region P247L N421K D270E (antibody)	4.24
Immunoglobulin with variant Fc region P247L N421K F243L (antibody)	10.1
Immunoglobulin with variant Fc region G316D R416G D270E F243L (antibody)	6.7
Immunoglobulin with variant Fc region Q419H P396L (antibody)	0.89
Immunoglobulin with variant Fc region G316D R416G D270E (antibody)	3.19

Next, values leading:

Ratio of Affinities CD16A F158/CD32B	Substance
4.42	Immunoglobulin with variant Fc region Q419H P396L D270E F243L (antibody)
2.89	Immunoglobulin with variant Fc region K392T P396L D270E (antibody)

biological target: FcγRIIIA 158V (CD16A V158), soluble monomer (human) (UniProt P08637); test: Biacore SPR; value on CD16A over value on CD32B

Substance	Ratio of Affinities CD16A V158/CD32B
Immunoglobulin with variant Fc region P247L N421K D270E (antibody)	3.26
Immunoglobulin with variant Fc region P247L N421K F243L (antibody)	11.1
Immunoglobulin with variant Fc region G316D R416G D270E F243L (antibody)	7.5
Immunoglobulin with variant Fc region Q419H P396L (antibody)	0.89
Immunoglobulin with variant Fc region G316D R416G D270E (antibody)	2.79

Results, then the substance that gave them:

Ratio of Affinities CD16A V158/CD32B	Substance
5.62	Immunoglobulin with variant Fc region Q419H P396L D270E F243L (antibody)
39.4	Immunoglobulin with variant Fc region R292P F243L (antibody)
2.29	Immunoglobulin with variant Fc region K392T P396L D270E (antibody)
6.2	Immunoglobulin with variant Fc region R292G (antibody)
0.6	Immunoglobulin with variant Fc region R292P V305I (antibody)
